In patent US20020090379A1, “INDUCING ANTIBODY RESPONSE AGAINST SELF-PROTEINS WITH THE AID OF FOREIGN T-CELL EPITOPES” (priority 1993, published 2002):

These substances were tested against A^k molecule (Mus musculus, UniProt P01910+P06343) (assay: Competitive inhibition of radiolabelled peptide binding to affinity purified MHC class II A^k). Details: 125I-labelled marker HEL(46-61)Y, cold peptide >550 μm, pH 5.
Description: (§1) Peptide-MHC complexes were obtained by incubating ^125I-labelled peptide (10-100 nM) with affinity purified MHC class II molecules (2- 10 μM) at room temperature for 3 days (S. Mouritsen, J Immunol. 148, 1438-1444, 1992). The following peptides were used as radiolabelled markers of binding: Hb(64-76)Y which binds strongly to the E^k molecule and HEL(46-61)Y which binds strongly to the A^k molecule. These complexes were incubated with large amounts of cold non radiolabelled peptide (>550 μm) which should be sufficient to inhibit totally all immunologically relevant MHC class II binding. Either the same peptides were used or were three different overlapping peptides representing the flanking regions as well as the entire OVA(325-336) sequence, containing the T cell epitope, which was substituted into ubiquitin (see Example 2). The three peptides were: TITLEPSQAVHAA (U(12-26)), PSQAVHAAHAEINEKE (U(19-34)) and HAEINEKEGIPPDQQ (U(27-41)). The reaction buffer contained 8 mM citrate, […], and 0.05% NP-40 (pH 5) and peptide-MHC class II complexes were separated (in duplicate) from free peptide by gel filtration using G25 spun columns. Both the radioaictivities of the excluded “void” volume and of the included “void” were measured by gamma spectrometry. The competitive inhibition of maximal binding (in percent) by addition of cold peptide was calculated.

Q: For “HEL(46-61): marker peptide which binds strongly to the A^k molecule; cold version used as competitor [reference compound]”, which “competitive inhibition of maximal binding by addition of cold peptide” value (“competitive inhibition” below) is on record?
A: 97.4%

Q: Which “competitive inhibition” value does the source give for “PSQAVHAAHAEINEKE [U(19-34), overlapping peptide of the OVA(325-336) region substituted into ubiquitin]” here?
A: 44.6%

Q: With “TITLEPSQAVHAA [U(12-26), overlapping peptide of the OVA(325-336) region substituted into ubiquitin]” as the substance, how does the “competitive inhibition” value read?
A: 35.3%

Q: “HAEINEKEGIPPDQQ [U(27-41), overlapping peptide of the OVA(325-336) region substituted into ubiquitin]” was tested. Which “competitive inhibition” value did it give?
A: 7.8%

The substances below were run on E^k molecule (assay: Competitive inhibition of radiolabelled peptide binding to affinity purified MHC class II E^k). Details: 125I-labelled marker Hb(64-76)Y, cold peptide >550 μm, pH 5.
Parameters: species or system mouse
Description: as §1

Q: Which “competitive inhibition” value does the source give for “HEL(46-61): marker peptide which binds strongly to the A^k molecule; cold version used as competitor [reference compound]” here?
A: 0.0%

Q: Which “competitive inhibition” value does the source give for “PSQAVHAAHAEINEKE [U(19-34), overlapping peptide of the OVA(325-336) region substituted into ubiquitin]” here?
A: 12.2%

Q: Which “competitive inhibition” value does the source give for “TITLEPSQAVHAA [U(12-26), overlapping peptide of the OVA(325-336) region substituted into ubiquitin]” here?
A: 45.6%

Q: Which “competitive inhibition” value does the source give for “HAEINEKEGIPPDQQ [U(27-41), overlapping peptide of the OVA(325-336) region substituted into ubiquitin]” here?
A: 0.0%
